# Source: patent publication US20090291083A1, “BARB4 TARGET, ANTIBODY DESIGNATED BARB4, BARB4 RELATED ANTIBODIES, AND METHODS OF MAKING AND USING SAME” (PATRYS LIMITED, priority 2008, published 2009)
# B1: BARB4: human IgG antibody produced by hybridoma DSMZ Deposit No. DSM ACC2876; heavy chain SEQ ID NOs:1, 3, 5, 7, light chain SEQ ID NO:9 (antibody, V domains shown)
# VH: QVQLVESGGGVVQPGRSLRLSCAASGFRFTTHGMHWVRQAPGKGLEWVAVISYNGRNKYYADYVNGRFTISRDDSRDTVFLQMNSLRPEDTAMYYCAKVRGDGYGDYGYFDYWGHGTLVSVSS
# VL: QSALTQPRSVSGSPGQSVTISCTGTYNYVSWYQQHPGKAPKLMIFDVSRRSSGVPDRFSGSKSGNTASLTISGLQAEDEADYYCCSYGGTYLYVFGTGTTVTVLGQ
# Experiments:
# TAF 15 = test: Immunoprecipitation of cell extracts with BARB4 and Western blotting; type: binding, human; settings: MKN cell extracts
# Protocol: To further validate BARB4 target protein TAF 15, BARB4 and a commercial TAF 15 antibody (anti-human TAFII p68, Santa Cruz Biotechnology, sc-81121) were analyzed for binding to BxPC-3, HEK 293, A549 and HeLa cell lines. In brief, cells were trypsinized with cell dissociation solution (Sigma C5789), resuspended in complete medium (RPMI 1640, PAA, E15-039, 10% Fetal bovine serum, PAA, A15-151 and 1% Glutamine, PAA, M11-004) and set on 2×10^5/ml. After 30 minutes on ice, cells were dispersed at 1 ml per FACS-tube and washed once with ice-cold PBS by centrifugation with 500 g and 4° C. Staining was done with BARB4 (100 ug/ml) or the commercial TAF 15 (25 μg/ml) IgG antibodies, control IgGs (IgG lambda, or mouse IgG), or without antibody in 200 μl PBS. Cells were incubated with 25 μg/ml antibody in 100 μl for 30 minutes on ice, then washed with ice cold PBS and secondary antibody (anti mouse IgG-FITC, dianova 115-095-008) was applied at a dilution of 1:50 in 200 μl per tube. After another 30 minutes of incubation in the dark, cells were washed twice with PBS and analyzed by FACS. […] BARB4 target protein TAF 15 validation was then analyzed by immunoprecipitation of MKNcell extracts with BARB4 and subsequent Western blotting with either BARB4 or anti-TAF 15 antibodies (Biomol, A300-308A; or Aviva, ARP30111_T100). […]
# [1] = tested on: malignant melanoma cells (HTB-69); test: FACS analysis of tumor cell binding; settings: 20 min on ice
# Protocol: (§1) To analyze tumor cell binding, pancreas cancer cells (BXPC-3), stomach cancer cells (23132/87), lung carcinoma cells (A549) and malignant melanoma cells (HTB-69 and CRL-1424) were grown to subconfluency in complete medium, detached with Trypsin/EDTA and incubated on ice for 1 h for recreation. Tumor cells were subsequently incubated on ice with BARB4 antibody (diluted in PBS containing 0.01% sodium azide), or human isotype-matched control antibody (Chrompure human IgG, Dianova, Hamburg, Germany) for 20 min on ice. Following incubation, cells were incubated with a FITC-labeled rabbit anti-human IgG antibody (1:50, Dako, Germany) for 20 min on ice, and cells were analyzed by flow cytometry (FACScan; Becton Dickinson, USA).
# [2] = tested on: malignant melanoma cells (CRL-1424); test: FACS analysis of tumor cell binding; settings: 20 min on ice
# Protocol: as §1
# [3] = tested on: stomach cancer cells (23132/87); test: FACS analysis of tumor cell binding; settings: 20 min on ice
# Protocol: as §1
molecule,measurement,setting,value
B1,detection of TAF15 in the immunoprecipitate by Western staining with BARB4 antibody,"TAF 15; FIG. 9B, assay conditions may not be optimized",did not appear to detect TAF15
same,"immunoprecipitation of TAF 15, Western staining with anti-TAF 15 antibodies",TAF 15; FIGS. 9A and 9C,able to immunoprecipiate TAF 15
same,tumor cell binding (FACS),[1],binds
same,tumor cell binding (FACS),[2],binds
same,tumor cell binding (FACS),[3],binds
